# Results as given in the supplement of paper PMC12636428.
# Tested on: Saccharomyces cerevisiae
# Experiment: transcriptional activation domain activity (GFP:mCherry ratio, weighted mean of sorted bins, harmonized to initial dataset scale) (arbitrary fluorescence ratio units); higher = stronger transcriptional activation
# Settings: beta-estradiol 1 µM; induction time 4 h
# Method in brief: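 In diploid yeast carrying a GFP reporter, barcoded protein tiles fused to an estradiol-inducible synthetic transcription factor were integrated at the URA3 locus. Cultures diluted 1:5 into SC with 1 uM beta-estradiol were kept at 30 °C for 4 hours, then sorted by GFP:mCherry ratio into 8 bins before barcode sequencing. Tiles with under 50 reads were excluded. The activation activity reported here is the read-weighted mean of bin median fluorescence, averaged across barcodes and linearly rescaled to the initial dataset.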
row,Sequence,transcriptional activation domain activity
1,LIHLMNIAQVVILFVHRFIFGVIPLFEIKTCSFWPLLVSLWHLNYIIIYSIMF,51600
2,LIHLMNIGQVSILFIHRFLYGLVPLFEITTCAFWPLLVSLWHLNFVLMYCIMF,66000
3,LIHVVNLAQVLAVLIHRTVYGLLPIFEVMSCAIFPFLVSMWHIAFLLMYTVML,45700
4,LIIDVFPPPPPLLSLFFFLSLSLFFSSSFLLFSFASLLSVQLWRGLIVLFVFL,62900
5,LIIPIIMDHLYPVPYMAFWDVSCFVNKVYFMQIVWLFNLPFLLHLLITLICYP,68100
6,LIKKVKNEKQMYPILVCVLRLYDYVTHIMLIECQCEGIQSAFVSNQLSVKDTG,52700
7,LILARRKGDDRFRRIFMFTMCRLLVTRNHNPDLRRLVTEYLLNVDRFMILLLG,59000
8,LILEPPPAGGADGGPPTRSVPSSALRVGDLVLLEKNQRVPADCVLLRTSDAAG,58800
9,LILGLVHFLYVFFVQIFSHNFTLIPLALDCNFTWEYSVTFVWIGLHTLVAFPI,54500
10,LILILLIWRYCWYDGVIVNKIRAIGNDFCIWNPRMGEPLWTEYSHLVAKCLLF,62700
11,LILLRLLWPVTLYFFVSLMYSLLSLAFGVPFSRNFGHAGFLIYWMMSWCSMSA,62400
12,LILNCYWIVLVAFTFNMEVEYCKIVSVVGKLSSKFLGRVQVFLLLFMLMLFLV,50600
13,LILRMQVATLTKLWGLPPEFEIVCRDIWALHLSLLPDPPPPEPYYFHERGDGM,34400
14,LINYLLVLLVFRKWLKGHQVPLFVIMSYAWTRQLSFMDNVRRTNKRATLAMLR,57200
15,LIPIVVLNMYSLLMLLFIRGWFSYLIAVVSISGVLVLHMLYFLLQWRLKYILW,65600
16,LIPTEGGELALGGAPLEDEDESTSDEEETPKASFQARLERLRKRMDGRPIKDI,26300
17,LIRAVWSHFKADFNAIYLGRLLVLLAYQKRRPRPPTGYNLGHHADPGLHTFWA,38200

row,Sequence,transcriptional activation domain activity
1,LIRIKDFTPNEVAAVVTYYSCRTNGMIPLTGRKWLGRIICRCLPLFDMLLFYR,37500
2,LISRLFAVKEVTKIQDINLEFDIACLWPLVPLSSWVMDYIVTVMQAWSLLFNR,59400
3,LITIPINYTVYIFVLFPFYVLSGTLCVGYYFHSYSPEFWLLRAWDFFFCFIPM,74300
4,LIVGGGATGAGTALDAASRGLKVALVERDDFSAGTSSKSTKLVHGGVRYLQKA,51800
5,LIVIRIVNPVIMYFFISCFYSLLSVAFQVPFNRYYGSSGFVIYWMMSWLAMCA,55900
6,LIVMRDRVEIIMLLWPIINIAFVILVGYDSDVTKSIRRLRQKYWSSLSVMAST,68600
7,LIVSWSGNYVVQHHSTRINLIDFMDSNYISHLCVYLGFSIADVCYQLTMLWMI,77700
8,LIVTALVWLFQASTEQFTFVALLMYRLKYPVRRVAWLLKFSAIQNLIPKFGFA,61200
9,LIVVCPCLNRAHPTCLKELQTDYICNMCNSIYQLKYIRFAQLLCFACHVLSLA,84300
10,LIVVFAQSKIDSDEASVPVDEELNGVSLLVRILSDSAGRIYMIVTLELLLKRN,53600
11,LIVVLILAPHPSLFRMLLRHHLQTLQQPFYFVIHLLVTYTLTFCAFSSLIICA,53700
12,LIVVTLSWDVAVIITFLKHRITLRRLKMQSFLSLSFLFKMLIICIFRFFIGVC,88200
13,LIWSCKLIWAAYLDMYRYHIYVLVSFEVVALLTWILTLLYGVPNLINLVYHAY,56300
14,LIYNVCTFSLFWIVYRYNLLYVNNFRFDTSGLLFPRALDQLFTGIYVMAVCLI,89400
15,LIYQKLPRVLKRPGWNFHPAVALTFSILLFAAYPLICFFNILIAWSNEVSFHN,54300
16,LKALQLGCYNYFLLGGSCVSGPVGLLAGIIRQPLVLFYHFFSVALYAIWLRVA,81200
17,LKDEVMKIKPVQKQTRAGQRTRFKAVVIVGDSNGHVGLGIKTAKEVATAIRAA,81600
